Measured values from patent US20250161505A1, “CD206 Targeted Peptide Conjugates and Methods of Using the Same” (Riptide Bioscience, Inc., priority 2022, published 2025).
Blank lines part the entries; values can stand above or below the compound they belong to. Where a SMILES comes first, the peptide text is derived from it. The star is where a group is joined. DOTA = O=C(O)CN1CCN(CC(=O)O)CCN(CC(=O)*)CCN(CC(=O)O)CC1

What was measured:
[1] = tested on: PDL1 unresponsive melanoma; conditions: PDL1 unresponsive melanoma murine models; cited from earlier work
[2] = tested on: tumor associated macrophages (TAMs); conditions: cited from earlier work
CD206 macrophages = conditions: through interactions with CD206 macrophages; cited from earlier work
[3] = assay type: in vitro ADME; conditions: mouse, serum
Procedure: Labeling of RP-832 and MART-1 with ^68Ga was accomplished by adding 10 μg of peptide to 500 μCi of ^68GaCl3 in 50 μL of 1 M sodium acetate buffer (pH 4.5). The reactions were incubated in a thermomixer at 95 degrees Celsius for 14 minutes with 300 rpm agitation. Incorporation of the ^68Ga was determined by radio-High Performance Liquid Chromatography (HPLC) immediately after the reaction. Analysis was performed using a C-18 column. The gradient elution system utilized mobile phase A (100% water 0.1% TFA) and mobile phase C (Acetonitrile containing 0.1% TFA) with a flow rate of 1.0 mL/min. The gradient started with 100% A and was increased to 100% C over 6.67 minutes and then returned to the initial gradient conditions within 4.66 minutes. […] The mixtures were incubated at 37 degrees Celsius with 400 rpm agitation up to three hours. Aliquots were removed at different time points (30 minutes, 1, 2, 3 h) to evaluate stability and analyzed using radio-HPLC as described above. All experiments were completed in triplicate.

syngeneic CT26 tumors = experiment: in vivo; design: species or system BALB/c mice; conditions: mouse
Procedure: (§1) 4T1 cells, a mouse breast cancer cell line (ATCC), and CT26 cells, a mouse colon carcinoma cell line (ATCC), were cultured in RPMI-1640 medium (ATCC) with 10 percent fetal bovine serum and 0.1 percent gentamicin at 37 degrees Celsius with 5 percent CO2. Wild-type BALB/c mice (Charles River) were used for syngeneic 4T1 and CT26 tumor models and were subcutaneously injected in the shoulder with 200,000 4T1 cells and 2×10^6 CT26 cells (with Matrigel). Tumors were allowed to grow for 10 days. Dynamic imaging studies were performed with a GNEXT small animal PET/CT (SOFIE). […] After 45 minutes, a high-resolution CT scan was obtained for anatomical reference. […] After 1 hour, a high-resolution CT scan was obtained for anatomical reference. During imaging, mice were anesthetized with 2.5 percent isoflurane/oxygen. The PET data was reconstructed into 5-minute time frames. Regions of interest (ROI) were drawn based on the CT anatomical guidelines. The mean standardized uptake value (SUV) was quantified using VivoQuant software with the equation: Where C is the activity concentration in tissue, dose is the injected dose, and weight is the body weight of the mouse. Statistical analysis was conducted with Graphpad Prism software.

in vivo [4] = experiment: in vivo; design: species or system BALB/c mice; conditions: BALB/c, mouse, total radioactivity
Procedure: as §1

syngeneic 4T1 tumors = experiment: in vivo; design: species or system BALB/c mice; conditions: mouse
Procedure: as §1

in vivo [5] = experiment: in vivo; design: species or system BALB/c mice; conditions: BALB/c, mouse, total radioactivity, average percent injected dose per gram of organ
Procedure: 4T1 cells, a mouse breast cancer cell line (ATCC), and CT26 cells, a mouse colon carcinoma cell line (ATCC), were cultured in RPMI-1640 medium (ATCC) with 10 percent fetal bovine serum and 0.1 percent gentamicin at 37 degrees Celsius with 5 percent CO2. Wild-type BALB/c mice (Charles River) were used for syngeneic 4T1 and CT26 tumor models and were subcutaneously injected in the shoulder with 200,000 4T1 cells and 2×10^6 CT26 cells (with Matrigel). Tumors were allowed to grow for 10 days. Following the [^68Ga]832c imaging studies, animals were euthanized, and organs of interest removed and assessed for radioactivity. For all biodistribution studies, specific uptake for each tissue was measured with background and decay correction and expressed as percent injected dose per gram of tissue (% ID/g) as calculated by normalization to the total activity injected.

Recombinant human CD206 = molecular target: T1, Recombinant human CD206 (Homo sapiens, UniProt P22897); experiment: Surface plasmon resonance (Biacore T200), immobilized CD206; assay type: binding; conditions: all concentrations (0.5 uM-10 uM)
T1 construct: purchased R&D systems 2534-MR-050
T1 sequence (P22897 19-1456): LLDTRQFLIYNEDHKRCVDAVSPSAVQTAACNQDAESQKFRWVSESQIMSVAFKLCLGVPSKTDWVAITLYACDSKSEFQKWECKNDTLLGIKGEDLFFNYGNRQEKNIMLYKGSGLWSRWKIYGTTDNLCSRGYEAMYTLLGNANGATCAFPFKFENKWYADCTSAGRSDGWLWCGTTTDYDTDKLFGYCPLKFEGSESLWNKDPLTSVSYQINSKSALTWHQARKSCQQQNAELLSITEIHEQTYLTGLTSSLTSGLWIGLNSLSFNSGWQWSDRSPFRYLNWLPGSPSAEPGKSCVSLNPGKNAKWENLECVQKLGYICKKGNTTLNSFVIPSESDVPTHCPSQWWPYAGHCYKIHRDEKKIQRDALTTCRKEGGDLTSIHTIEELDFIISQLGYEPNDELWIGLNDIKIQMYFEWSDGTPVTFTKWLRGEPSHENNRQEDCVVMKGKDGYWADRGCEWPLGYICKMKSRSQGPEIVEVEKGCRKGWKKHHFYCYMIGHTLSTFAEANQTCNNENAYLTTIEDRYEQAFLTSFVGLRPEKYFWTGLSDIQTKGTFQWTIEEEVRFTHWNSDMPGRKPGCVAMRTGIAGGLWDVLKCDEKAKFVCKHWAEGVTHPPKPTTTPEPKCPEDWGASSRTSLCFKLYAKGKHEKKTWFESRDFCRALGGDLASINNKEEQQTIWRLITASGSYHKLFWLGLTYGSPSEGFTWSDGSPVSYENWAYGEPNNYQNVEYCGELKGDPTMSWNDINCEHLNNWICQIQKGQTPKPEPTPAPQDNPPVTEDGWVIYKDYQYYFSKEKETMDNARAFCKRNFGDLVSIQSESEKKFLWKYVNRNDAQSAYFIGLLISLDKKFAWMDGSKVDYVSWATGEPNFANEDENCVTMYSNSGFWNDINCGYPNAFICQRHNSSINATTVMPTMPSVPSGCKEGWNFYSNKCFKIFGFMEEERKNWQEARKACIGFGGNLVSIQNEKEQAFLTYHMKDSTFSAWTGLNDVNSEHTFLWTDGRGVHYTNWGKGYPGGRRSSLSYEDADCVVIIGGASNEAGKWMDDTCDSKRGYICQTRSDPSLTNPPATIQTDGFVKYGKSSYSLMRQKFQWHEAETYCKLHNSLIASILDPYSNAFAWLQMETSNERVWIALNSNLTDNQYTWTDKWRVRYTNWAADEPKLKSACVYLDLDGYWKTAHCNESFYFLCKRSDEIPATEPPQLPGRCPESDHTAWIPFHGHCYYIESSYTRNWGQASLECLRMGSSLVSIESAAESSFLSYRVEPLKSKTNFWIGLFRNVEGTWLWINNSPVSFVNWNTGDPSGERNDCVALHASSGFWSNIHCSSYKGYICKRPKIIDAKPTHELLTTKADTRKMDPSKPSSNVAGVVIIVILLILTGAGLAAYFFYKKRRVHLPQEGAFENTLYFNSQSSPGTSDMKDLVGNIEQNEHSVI
Procedure: All SPR experiments were carried out using a Biacore T200 Biosensor instrument (GE Health Life Sciences, Piscataway, NJ). CM5 sensor chips, amine coupling reagents, and running buffers used in the binding analysis were obtained from Cytivalifesciences (Marlborough, MA).
Recombinant human CD206 was purchased from R&D systems (Catalog #2534-MR-050). CD206 protein was immobilized onto a CM5 sensor chip surface via standard amine coupling chemistry, using HBS-P+ running buffer (10 mM HEPES, [pH 7.4], 150 mM NaCl, and 0.05% Surfactant 20) at 25° C., as per manufacturer recommendation (Cytiva, Marlborough, MA). Briefly, carboxyl groups on the sensor chip flow cell surface (flow cell 2) were activated by injecting an equal mixture of 200 mM N-hydroxysuccinimide (NHS) and 50 mM 1-ethyl-3-(3-dimethylaminopropyl) carbodiimide hydrochloride) (EDC) at a flow rate of 10 μl/min. CD206 (25 μg/mL) was then diluted in 10 mM sodium acetate buffer pH 5.0 and injected over the surface at a flow rate of 10 μl/min until a level of 5000 resonance units (RU) was reached. This was followed by a 7 min injection of 1 M ethanolamine (pH 8) to block excessive reactive esters and wash away any non-covalently bound CD206. A blank flow cell surface (flow cell 1) was similarly activated with no protein injection, and used as a reference to subtract non-specific binding and bulk refractive index. […]

Compound: RWKFGGFKWR [RP-832c]
effect on tumor resistance [1]: shown promise in inhibiting tumor resistance | effect on population of tumor associated macrophages [2]: shift the population of tumor associated macrophages (TAMs) from M2 (pro-tumor) towards a M1 phenotype (anti-tumor) | effect on bleomycin induced pulmonary fibrosis (CD206 macrophages): inhibit bleomycin induced pulmonary fibrosis

Compound: N=C(N)NCCC[C@H](NC(=O)[C@H](Cc1c[nH]c2ccccc12)NC(=O)[C@H](CCCCN)NC(=O)[C@H](Cc1ccccc1)NC(=O)CNC(=O)CNC(=O)[C@H](Cc1ccccc1)NC(=O)[C@H](CCCCN)NC(=O)[C@H](Cc1c[nH]c2ccccc12)NC(=O)[C@H](CCCNC(=N)N)NC(=O)CN1CCN(CC(=O)O)CCN(CC(=O)O)CCN(CC(=O)O)CC1)C(=O)O [[^68Ga]RP832c, metal not drawn] ({DOTA}-RWKFGGFKWR-OH)
free ^68Ga (^68Ga remained complexed) [3]: less than one percent free ^68Ga | highest signal in maximum intensity projections (MIPs) (syngeneic CT26 tumors): kidneys and bladder | SUV at 0.25 h (in vivo [4]): 0.25 SUV | SUV at 40 min (in vivo [4]): 0.5 SUV | highest signal in MIP images (syngeneic 4T1 tumors): bladder | tissue uptake at 1.5 h (in vivo [5]; 15 uCi, liver): 1.66 %ID/g | tissue uptake at 1.5 h (in vivo [5]; 15 uCi, spleen): 0.67 %ID/g | tissue uptake at 1.5 h (in vivo [5]; 15 uCi, tumor): 0.4 %ID/g | tissue uptake at 1.5 h (in vivo [5]; liver): 1.46 %ID/g | tissue uptake at 1.5 h (in vivo [5]; spleen): 0.91 %ID/g | tissue uptake at 1.5 h (in vivo [5]; tumor): 0.57 %ID/g

binding sensorgram (Recombinant human CD206): no binding
Compound: DOTA-MART-1: MART-1 peptide with DOTA, not radiolabeled, control in SPR
